These are literature values, as cited in patent publication US8168409B2, “Compositions and methods relating to anti-IGF-1 receptor antibodies” (Amgen Inc., priority 2004, dated 2012).

Broadly, the pKd is −log10 of the Kd, conventionally taken in molar units.

pKd: −log10 of the molar value.

In this series the target is IGF-1R (Homo sapiens, UniProt P08069). As to conditions: biphasic binding; high affinity component.

On to “IGF-2: insulin-like growth factor 2, ligand of IGF-1R”, for which the negative logarithm of the Kd (pKd) was approximately 9.70.
